# Reference: publication PMC8432352
# Tests used:
# Assay in all cases: SDS-PAGE without heating
# [1] = target: Tail spike protein 4 (TSP4) of Salmonella phage S117 (Salmonella phage S117)
# [2] = target: Tail spike protein 2 (TSP2) of Salmonella phage S117 (Salmonella phage S117)
# [3] = target: Tail spike protein 3 (TSP3) of Salmonella phage S117 (Salmonella phage S117)
# [4] = target: Tail spike protein 1 (TSP1) of Salmonella phage S117 (Salmonella phage S117)
substance,measurement,setting,value
Tail spike protein 4 (TSP4) of Salmonella phage S117 (natural protein),stoichiometry N,[1],3
Tail spike protein 2 (TSP2) of Salmonella phage S117 (natural protein),stoichiometry N,[2],3
Tail spike protein 3 (TSP3) of Salmonella phage S117 (natural protein),stoichiometry N,[3],3
Tail spike protein 1 (TSP1) of Salmonella phage S117 (natural protein),stoichiometry N,[4],3
